T1: RADIL, Q96JH8
T1 sequence (Q96JH8 971-1071, limits assumed, looked up): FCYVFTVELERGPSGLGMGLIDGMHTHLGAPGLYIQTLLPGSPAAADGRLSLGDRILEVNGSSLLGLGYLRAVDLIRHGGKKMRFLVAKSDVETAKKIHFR

T2: APBA3_1, O96018
T2 sequence (O96018 389-490, limits assumed, looked up): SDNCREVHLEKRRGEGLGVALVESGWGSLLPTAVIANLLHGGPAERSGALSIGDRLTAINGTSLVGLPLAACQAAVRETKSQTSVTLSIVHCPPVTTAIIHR

T3: ARHGAP21, Q5T5U3
T3 sequence (Q5T5U3 45-169, limits assumed, looked up): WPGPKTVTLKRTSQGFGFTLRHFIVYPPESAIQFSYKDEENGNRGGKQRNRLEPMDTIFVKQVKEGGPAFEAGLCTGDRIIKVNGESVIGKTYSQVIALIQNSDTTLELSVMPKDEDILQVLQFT

T4: DVL3, Q92997
T4 sequence (Q92997 244-331, limits assumed, looked up): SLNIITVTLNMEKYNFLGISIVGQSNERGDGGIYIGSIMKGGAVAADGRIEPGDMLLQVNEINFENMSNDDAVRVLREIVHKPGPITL

T5: CARD11, Q9BXL7
T5 sequence (Q9BXL7 662-765, limits assumed, looked up): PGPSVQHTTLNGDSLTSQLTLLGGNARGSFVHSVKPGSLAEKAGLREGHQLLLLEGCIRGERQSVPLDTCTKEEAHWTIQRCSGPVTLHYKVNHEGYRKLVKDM

T6: NHERF3_4, Q5T2W1
T6 sequence (Q5T2W1 373-468, limits assumed, looked up): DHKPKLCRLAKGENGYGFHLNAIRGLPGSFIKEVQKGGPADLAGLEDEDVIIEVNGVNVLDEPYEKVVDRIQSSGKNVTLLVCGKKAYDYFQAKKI

T7: MPDZ_10, O75970
T7 sequence (O75970 1624-1722, limits assumed, looked up): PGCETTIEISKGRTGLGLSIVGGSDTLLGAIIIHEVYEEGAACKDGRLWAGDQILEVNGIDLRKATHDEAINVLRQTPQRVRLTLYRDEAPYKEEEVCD

T8: MPP7, Q5T2T1
T8 sequence (Q5T2T1 134-230, limits assumed, looked up): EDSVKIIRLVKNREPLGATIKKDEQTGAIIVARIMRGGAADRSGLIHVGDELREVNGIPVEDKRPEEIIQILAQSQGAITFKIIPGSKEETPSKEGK


These binders were tested against ARHGEF12, Q9NZN5-2 (assay: holdup assay). Conditions: plain residues with an end cap or a label only (N-terminal biotin on a linker: ado-ado).
Design: key: below the threshold = too weak to quantify, mostly under pKd 3.1 to 4

ARHGEF12, Q9NZN5-2, sequence (Q9NZN5 other isoform, or with tags, fused parts or gaps): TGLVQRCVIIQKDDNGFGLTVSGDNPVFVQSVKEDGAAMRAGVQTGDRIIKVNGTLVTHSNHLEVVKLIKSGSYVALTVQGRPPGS

| Binder | pKd |
| --- | --- |
| TGLWKSETTV [ADGRA2, Q96PE1] | 4.06 |

Each binder was assayed against T1, RADIL, Q96JH8 (assay: holdup assay). Conditions: plain residues with an end cap or a label only (N-terminal biotin on a linker: ado-ado).
Design: key: below the threshold = too weak to quantify, mostly under pKd 3.1 to 4

| Binder | pKd |
| --- | --- |
| TGLWKSETTV [ADGRA2, Q96PE1] | 3.95 |

Each binder was assayed against SCRIB_3, Q14160 (assay: holdup assay). Conditions: plain residues with an end cap or a label only (N-terminal biotin on a linker: ado-ado).
Design: key: below the threshold = too weak to quantify, mostly under pKd 3.1 to 4

SCRIB_3, Q14160, sequence (Q14160 999-1103): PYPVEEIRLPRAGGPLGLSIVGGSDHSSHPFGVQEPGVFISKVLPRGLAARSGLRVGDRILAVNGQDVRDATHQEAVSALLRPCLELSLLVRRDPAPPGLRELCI

| Binder | pKd |
| --- | --- |
| TGLWKSETTV [ADGRA2, Q96PE1] | 4.4 |

These binders were tested against LNX1_2, Q8TBB1 (assay: holdup assay). Conditions: plain residues with an end cap or a label only (N-terminal biotin on a linker: ado-ado).
Design: key: below the threshold = too weak to quantify, mostly under pKd 3.1 to 4

LNX1_2, Q8TBB1, sequence (Q8TBB1 371-470): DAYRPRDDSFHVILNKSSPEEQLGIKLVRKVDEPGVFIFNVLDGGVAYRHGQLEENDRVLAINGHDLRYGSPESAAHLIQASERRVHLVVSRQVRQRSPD

| Binder | pKd |
| --- | --- |
| TGLWKSETTV [ADGRA2, Q96PE1] | 3.89 |

What follows are binders tested against T2, APBA3_1, O96018 (assay: holdup assay). Conditions: plain residues with an end cap or a label only (N-terminal biotin on a linker: ado-ado).
Design: key: below the threshold = too weak to quantify, mostly under pKd 3.1 to 4

| Binder | pKd |
| --- | --- |
| TGLWKSETTV [ADGRA2, Q96PE1] | below the threshold |

What follows are binders tested against LDB3, O75112 (assay: holdup assay). Conditions: plain residues with an end cap or a label only (N-terminal biotin on a linker: ado-ado).
Design: key: below the threshold = too weak to quantify, mostly under pKd 3.1 to 4

LDB3, O75112, sequence (O75112 1-94): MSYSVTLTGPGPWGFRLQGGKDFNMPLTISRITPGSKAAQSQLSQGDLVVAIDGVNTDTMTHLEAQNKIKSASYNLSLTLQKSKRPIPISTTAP

| Binder | pKd |
| --- | --- |
| TGLWKSETTV [ADGRA2, Q96PE1] | below the threshold |

Each binder was assayed against DLG4_1, P78352 (assay: holdup assay). Conditions: plain residues with an end cap or a label only (N-terminal biotin on a linker: ado-ado).
Design: key: below the threshold = too weak to quantify, mostly under pKd 3.1 to 4

DLG4_1, P78352, sequence (P78352 62-152): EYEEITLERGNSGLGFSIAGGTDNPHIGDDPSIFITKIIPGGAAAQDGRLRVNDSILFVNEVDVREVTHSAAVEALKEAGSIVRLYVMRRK

| Binder | pKd |
| --- | --- |
| TGLWKSETTV [ADGRA2, Q96PE1] | 4.94 |

The binders below were run against PTPN3, P26045 (assay: holdup assay). Conditions: plain residues with an end cap or a label only (N-terminal biotin on a linker: ado-ado).
Design: key: below the threshold = too weak to quantify, mostly under pKd 3.1 to 4

PTPN3, P26045, sequence (P26045 505-587): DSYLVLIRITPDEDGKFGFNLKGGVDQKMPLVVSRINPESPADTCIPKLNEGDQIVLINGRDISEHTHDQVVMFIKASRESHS

| Binder | pKd |
| --- | --- |
| TGLWKSETTV [ADGRA2, Q96PE1] | 4.54 |

These binders were tested against T3, ARHGAP21, Q5T5U3 (assay: holdup assay). Conditions: plain residues with an end cap or a label only (N-terminal biotin on a linker: ado-ado).
Design: key: below the threshold = too weak to quantify, mostly under pKd 3.1 to 4

| Binder | pKd |
| --- | --- |
| TGLWKSETTV [ADGRA2, Q96PE1] | 4.03 |

The binders below were run against Inadl_6, Q8NI35 (assay: holdup assay). Conditions: plain residues with an end cap or a label only (N-terminal biotin on a linker: ado-ado).
Design: key: below the threshold = too weak to quantify, mostly under pKd 3.1 to 4

Inadl_6, Q8NI35, sequence (Q8NI35 1058-1167): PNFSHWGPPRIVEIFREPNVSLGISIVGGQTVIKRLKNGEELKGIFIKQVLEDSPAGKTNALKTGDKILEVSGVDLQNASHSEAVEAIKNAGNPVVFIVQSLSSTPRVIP

| Binder | pKd |
| --- | --- |
| TGLWKSETTV [ADGRA2, Q96PE1] | below the threshold |

What follows are binders tested against MAGI3_2, Q5TCQ9 (assay: holdup assay). Conditions: plain residues with an end cap or a label only (N-terminal biotin on a linker: ado-ado).
Design: key: below the threshold = too weak to quantify, mostly under pKd 3.1 to 4

MAGI3_2, Q5TCQ9, sequence (Q5TCQ9 398-503): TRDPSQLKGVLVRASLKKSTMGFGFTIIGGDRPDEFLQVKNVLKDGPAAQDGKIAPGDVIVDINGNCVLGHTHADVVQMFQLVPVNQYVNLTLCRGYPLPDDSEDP

| Binder | pKd |
| --- | --- |
| TGLWKSETTV [ADGRA2, Q96PE1] | 5.6 |

These binders were tested against PDZRN4_1, Q6ZMN7 (assay: holdup assay). Conditions: plain residues with an end cap or a label only (N-terminal biotin on a linker: ado-ado).
Design: key: below the threshold = too weak to quantify, mostly under pKd 3.1 to 4

PDZRN4_1, Q6ZMN7, sequence (Q6ZMN7 213-318): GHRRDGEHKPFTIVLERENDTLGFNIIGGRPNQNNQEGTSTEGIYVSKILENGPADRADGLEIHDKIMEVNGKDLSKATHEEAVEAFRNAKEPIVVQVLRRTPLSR

| Binder | pKd |
| --- | --- |
| TGLWKSETTV [ADGRA2, Q96PE1] | 4.24 |

These binders were tested against T4, DVL3, Q92997 (assay: holdup assay). Conditions: plain residues with an end cap or a label only (N-terminal biotin on a linker: ado-ado).
Design: key: below the threshold = too weak to quantify, mostly under pKd 3.1 to 4

| Binder | pKd |
| --- | --- |
| TGLWKSETTV [ADGRA2, Q96PE1] | below the threshold |

Each binder was assayed against DLG2_2, Q15700 (assay: holdup assay). Conditions: plain residues with an end cap or a label only (N-terminal biotin on a linker: ado-ado).
Design: key: below the threshold = too weak to quantify, mostly under pKd 3.1 to 4

DLG2_2, Q15700, sequence (Q15700 189-283): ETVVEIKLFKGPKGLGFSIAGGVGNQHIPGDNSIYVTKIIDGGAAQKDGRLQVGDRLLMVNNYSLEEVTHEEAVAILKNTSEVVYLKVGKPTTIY

| Binder | pKd |
| --- | --- |
| TGLWKSETTV [ADGRA2, Q96PE1] | 5.16 |

Each binder was assayed against T5, CARD11, Q9BXL7 (assay: holdup assay). Conditions: plain residues with an end cap or a label only (N-terminal biotin on a linker: ado-ado).
Design: key: below the threshold = too weak to quantify, mostly under pKd 3.1 to 4

| Binder | pKd |
| --- | --- |
| TGLWKSETTV [ADGRA2, Q96PE1] | below the threshold |

Each binder was assayed against Inadl_9, Q8NI35 (assay: holdup assay). Conditions: plain residues with an end cap or a label only (N-terminal biotin on a linker: ado-ado).
Design: key: below the threshold = too weak to quantify, mostly under pKd 3.1 to 4

Inadl_9, Q8NI35, sequence (Q8NI35 1530-1615): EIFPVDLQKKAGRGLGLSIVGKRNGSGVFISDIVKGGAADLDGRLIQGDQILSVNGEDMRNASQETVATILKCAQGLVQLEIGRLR

| Binder | pKd |
| --- | --- |
| TGLWKSETTV [ADGRA2, Q96PE1] | 3.75 |

What follows are binders tested against MAGI2_4, Q86UL8 (assay: holdup assay). Conditions: plain residues with an end cap or a label only (N-terminal biotin on a linker: ado-ado).
Design: key: below the threshold = too weak to quantify, mostly under pKd 3.1 to 4

MAGI2_4, Q86UL8, sequence (Q86UL8 772-865): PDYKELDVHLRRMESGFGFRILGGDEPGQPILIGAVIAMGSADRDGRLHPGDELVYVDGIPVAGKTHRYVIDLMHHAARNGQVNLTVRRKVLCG

| Binder | pKd |
| --- | --- |
| TGLWKSETTV [ADGRA2, Q96PE1] | 4.88 |

The binders below were run against LNX1_1, Q8TBB1 (assay: holdup assay). Conditions: plain residues with an end cap or a label only (N-terminal biotin on a linker: ado-ado).
Design: key: below the threshold = too weak to quantify, mostly under pKd 3.1 to 4

LNX1_1, Q8TBB1, sequence (Q8TBB1 261-371): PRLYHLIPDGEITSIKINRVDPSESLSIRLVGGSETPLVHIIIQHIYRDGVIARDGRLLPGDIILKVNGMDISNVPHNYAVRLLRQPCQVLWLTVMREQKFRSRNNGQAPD

| Binder | pKd |
| --- | --- |
| TGLWKSETTV [ADGRA2, Q96PE1] | below the threshold |

Each binder was assayed against T6, NHERF3_4, Q5T2W1 (assay: holdup assay). Conditions: plain residues with an end cap or a label only (N-terminal biotin on a linker: ado-ado).
Design: key: below the threshold = too weak to quantify, mostly under pKd 3.1 to 4

| Binder | pKd |
| --- | --- |
| TGLWKSETTV [ADGRA2, Q96PE1] | below the threshold |

The binders below were run against GORASP1, Q9BQQ3 (assay: holdup assay). Conditions: plain residues with an end cap or a label only (N-terminal biotin on a linker: ado-ado).
Design: key: below the threshold = too weak to quantify, mostly under pKd 3.1 to 4

GORASP1, Q9BQQ3, sequence (Q9BQQ3 1-208): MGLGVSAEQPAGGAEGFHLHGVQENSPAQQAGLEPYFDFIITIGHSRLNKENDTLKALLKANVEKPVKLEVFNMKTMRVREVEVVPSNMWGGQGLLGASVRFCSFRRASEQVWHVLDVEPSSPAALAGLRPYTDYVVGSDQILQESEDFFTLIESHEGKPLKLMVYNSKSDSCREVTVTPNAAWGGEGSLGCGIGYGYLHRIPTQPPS

| Binder | pKd |
| --- | --- |
| TGLWKSETTV [ADGRA2, Q96PE1] | 3.5 |

These binders were tested against MAGI2_3, Q86UL8 (assay: holdup assay). Conditions: plain residues with an end cap or a label only (N-terminal biotin on a linker: ado-ado).
Design: key: below the threshold = too weak to quantify, mostly under pKd 3.1 to 4

MAGI2_3, Q86UL8, sequence (Q86UL8 600-682): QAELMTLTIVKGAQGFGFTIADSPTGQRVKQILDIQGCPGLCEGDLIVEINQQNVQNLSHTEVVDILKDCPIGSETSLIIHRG

| Binder | pKd |
| --- | --- |
| TGLWKSETTV [ADGRA2, Q96PE1] | below the threshold |

Each binder was assayed against T7, MPDZ_10, O75970 (assay: holdup assay). Conditions: plain residues with an end cap or a label only (N-terminal biotin on a linker: ado-ado).
Design: key: below the threshold = too weak to quantify, mostly under pKd 3.1 to 4

| Binder | pKd |
| --- | --- |
| TGLWKSETTV [ADGRA2, Q96PE1] | below the threshold |

Each binder was assayed against MAGI2_2, Q86UL8 (assay: holdup assay). Conditions: plain residues with an end cap or a label only (N-terminal biotin on a linker: ado-ado).
Design: key: below the threshold = too weak to quantify, mostly under pKd 3.1 to 4

MAGI2_2, Q86UL8, sequence (Q86UL8 410-522): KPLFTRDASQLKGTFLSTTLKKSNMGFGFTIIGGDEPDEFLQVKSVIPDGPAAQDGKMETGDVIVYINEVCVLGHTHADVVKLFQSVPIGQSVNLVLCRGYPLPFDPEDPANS

| Binder | pKd |
| --- | --- |
| TGLWKSETTV [ADGRA2, Q96PE1] | 5.37 |

These binders were tested against MAGI1_1, Q96QZ7 (assay: holdup assay). Conditions: plain residues with an end cap or a label only (N-terminal biotin on a linker: ado-ado).
Design: key: below the threshold = too weak to quantify, mostly under pKd 3.1 to 4

MAGI1_1, Q96QZ7, sequence (Q96QZ7 1-106): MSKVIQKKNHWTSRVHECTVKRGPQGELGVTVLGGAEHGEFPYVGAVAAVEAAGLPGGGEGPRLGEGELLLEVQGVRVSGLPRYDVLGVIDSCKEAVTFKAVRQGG

| Binder | pKd |
| --- | --- |
| TGLWKSETTV [ADGRA2, Q96PE1] | 3.55 |

Each binder was assayed against NOS1, P29475 (assay: holdup assay). Conditions: plain residues with an end cap or a label only (N-terminal biotin on a linker: ado-ado).
Design: key: below the threshold = too weak to quantify, mostly under pKd 3.1 to 4

NOS1, P29475, sequence (P29475 9-101): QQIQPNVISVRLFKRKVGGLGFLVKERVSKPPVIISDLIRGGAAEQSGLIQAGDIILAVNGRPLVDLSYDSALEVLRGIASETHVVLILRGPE

| Binder | pKd |
| --- | --- |
| TGLWKSETTV [ADGRA2, Q96PE1] | 3.56 |

Each binder was assayed against FRMPD2_3, Q68DX3 (assay: holdup assay). Conditions: plain residues with an end cap or a label only (N-terminal biotin on a linker: ado-ado).
Design: key: below the threshold = too weak to quantify, mostly under pKd 3.1 to 4

FRMPD2_3, Q68DX3, sequence (Q68DX3 1073-1166): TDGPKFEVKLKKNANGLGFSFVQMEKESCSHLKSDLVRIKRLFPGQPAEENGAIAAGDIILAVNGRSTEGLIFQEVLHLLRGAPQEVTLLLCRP

| Binder | pKd |
| --- | --- |
| TGLWKSETTV [ADGRA2, Q96PE1] | below the threshold |

Each binder was assayed against Inadl_10, Q8NI35 (assay: holdup assay). Conditions: plain residues with an end cap or a label only (N-terminal biotin on a linker: ado-ado).
Design: key: below the threshold = too weak to quantify, mostly under pKd 3.1 to 4

Inadl_10, Q8NI35, sequence (Q8NI35 1673-1763): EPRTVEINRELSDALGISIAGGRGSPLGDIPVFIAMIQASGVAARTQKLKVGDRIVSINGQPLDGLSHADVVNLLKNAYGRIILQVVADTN

| Binder | pKd |
| --- | --- |
| TGLWKSETTV [ADGRA2, Q96PE1] | below the threshold |

What follows are binders tested against FRMPD4, Q14CM0 (assay: holdup assay). Conditions: plain residues with an end cap or a label only (N-terminal biotin on a linker: ado-ado).
Design: key: below the threshold = too weak to quantify, mostly under pKd 3.1 to 4

FRMPD4, Q14CM0, sequence (Q14CM0 67-160): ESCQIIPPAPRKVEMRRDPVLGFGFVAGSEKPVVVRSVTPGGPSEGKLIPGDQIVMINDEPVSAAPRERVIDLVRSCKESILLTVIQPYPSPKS

| Binder | pKd |
| --- | --- |
| TGLWKSETTV [ADGRA2, Q96PE1] | below the threshold |

These binders were tested against GRIP2_5, Q9C0E4 (assay: holdup assay). Conditions: plain residues with an end cap or a label only (N-terminal biotin on a linker: ado-ado).
Design: key: below the threshold = too weak to quantify, mostly under pKd 3.1 to 4

GRIP2_5, Q9C0E4, sequence (Q9C0E4 544-642): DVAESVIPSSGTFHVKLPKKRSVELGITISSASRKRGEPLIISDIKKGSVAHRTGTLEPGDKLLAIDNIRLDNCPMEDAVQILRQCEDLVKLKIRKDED

| Binder | pKd |
| --- | --- |
| TGLWKSETTV [ADGRA2, Q96PE1] | below the threshold |

These binders were tested against T8, MPP7, Q5T2T1 (assay: holdup assay). Conditions: plain residues with an end cap or a label only (N-terminal biotin on a linker: ado-ado).
Design: key: below the threshold = too weak to quantify, mostly under pKd 3.1 to 4

| Binder | pKd |
| --- | --- |
| TGLWKSETTV [ADGRA2, Q96PE1] | below the threshold |

Source: paper PMC9482650, “Quantitative fragmentomics allow affinity mapping of interactomes” (Nature Communications, 2022)
